In one series the target is T1, VvWRKY5-HIS (Vitis vinifera, UniProt F6HUN4 7-329).
T1 sequence: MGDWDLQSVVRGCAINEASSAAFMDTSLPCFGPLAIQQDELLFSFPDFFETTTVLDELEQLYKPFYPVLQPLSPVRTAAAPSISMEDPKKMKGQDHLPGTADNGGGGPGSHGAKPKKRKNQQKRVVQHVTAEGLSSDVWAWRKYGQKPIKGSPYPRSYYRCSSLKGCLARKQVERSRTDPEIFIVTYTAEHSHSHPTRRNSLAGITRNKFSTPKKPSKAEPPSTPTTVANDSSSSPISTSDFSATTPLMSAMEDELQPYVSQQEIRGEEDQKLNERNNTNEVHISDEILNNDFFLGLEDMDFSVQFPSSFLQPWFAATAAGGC
The series is described as follows: EMSA; LightShift Chemiluminescent EMSA system; buffer, salt, pH and temperature not stated. The following applies: protein: recombinant, tags: His (pET-32a fusion), blunt. Background: In EMSA bound probe runs differently from free probe, usually more slowly.

A further series has as its target T2, VvMYBA1-HIS (Vitis vinifera, UniProt Q6L9M9 1-250).
T2 sequence: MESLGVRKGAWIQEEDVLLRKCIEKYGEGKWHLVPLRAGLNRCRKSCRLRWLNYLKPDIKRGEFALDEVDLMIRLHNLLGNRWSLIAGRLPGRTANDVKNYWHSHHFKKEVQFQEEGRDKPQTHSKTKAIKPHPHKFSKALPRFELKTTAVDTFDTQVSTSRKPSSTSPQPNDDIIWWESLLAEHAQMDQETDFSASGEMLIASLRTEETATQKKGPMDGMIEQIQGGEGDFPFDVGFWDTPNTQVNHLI
The description is as above. The following applies: protein: recombinant; tags: His (pET-32a fusion); label: biotin; blunt.

B1: VvLOX mutant probe (dsDNA)
DNA 1: ACCAGCCAATGGAAAATAGCGAAAATACCTAGTCTATTCC
DNA 2: GGAATAGACTAGGTATTTTCGCTATTTTCCATTGGCTGGT
Take B1: in the series with VvWRKY5-HIS, the binding result is listed as “no binding”.

B2: VvUFGT probe (dsDNA)
DNA 1: GGATGACAACCCCCATGCAGTTGCCACTCTCACAACCCCC
DNA 2: GGGGGTTGTGAGAGTGGCAACTGCATGGGGGTTGTCATCC
With B2, the figures for the binding result with VvMYBA1-HIS and with VvWRKY5-HIS (label: biotin) were “binds” and “no binding”, respectively.

The record behind these values is publication PMC11101322, “VvWRKY5 positively regulates wounding-induced anthocyanin accumulation in grape by interplaying with VvMYBA1 and promoting jasmonic acid biosynthesis”.
